Source: patent US20200222478A1

What was measured:
Assay in all cases: UV peptide exchange + HLA class I ELISA
Settings in all cases: remark: other sources report otherwise
HLA-A*02:01 (human) = biological target: HLA-A*02:01 (human)
HLA-A*03:01 (human) = biological target: HLA-A*03:01 (human)
HLA-A*24:02 (human) = biological target: HLA-A*24:02 (human)
HLA-B*07:02 (human) = biological target: HLA-B*07:02 (human)
HLA-B*08:01 (human) = biological target: HLA-B*08:01 (human)
HLA-A*01:01 (human) = biological target: HLA-A*01:01 (human)

exchange rate vs Pos peptide (HLA-A*02:01 (human)) | exchange rate vs Pos peptide (HLA-A*03:01 (human)) | exchange rate vs Pos peptide (HLA-A*24:02 (human)) | exchange rate vs Pos peptide (HLA-B*07:02 (human)) | exchange rate vs Pos peptide (HLA-B*08:01 (human)) | exchange rate vs Pos peptide (HLA-A*01:01 (human)) | Binder
89.2% | 3.5% | 0.5% | 8.7% | 2.6% | – | LLERNSFEV (here or on the partner: biotinylated heavy chain) [P73 9-mer peptide (TP53 (G266E))]
5.8% | – | 90.3% | – | 3.6% | 1.7% | CYLGRQKRF (here or on the partner: biotinylated heavy chain) [P61 9-mer peptide (FOXA1.p.R261G)]
11.8% | 32.5% | 0.2% | – | 5.3% | 2.5% | HVPKILSGK (here or on the partner: biotinylated heavy chain) [P58 9-mer peptide (AR (Q903H))]
46.9% | 4.8% | 0% | 8.3% | 3.9% | 4.4% | QLIAMDSAI (here or on the partner: biotinylated heavy chain) [P22 9-mer peptide (SLC45A3-ELK4 fusion)]
85.9% | 6% | -0.5% | 91.5% | – | 0.1% | YCMAAPMGL (here or on the partner: biotinylated heavy chain) [P76 9-mer peptide (AR-V3 splice variant)]
8.4% | 6.8% | 0.5% | 82.5% | 38% | 2.6% | RAKCKFSIL (here or on the partner: biotinylated heavy chain) [P56 9-mer peptide (SPOP(F102C))]
7.9% | 51.1% | -0.1% | 6.7% | 2.4% | 2.5% | IVWWCPMSR (here or on the partner: biotinylated heavy chain) [P98 9-mer peptide (TP53 (R213D) frameshift)]
64% | 2.4% | 0.2% | 5% | 3.1% | 1.1% | FLFLLLPLS (here or on the partner: biotinylated heavy chain) [P87 9-mer peptide (AR-Intron splice variant)]
8.2% | 4.1% | 0.1% | 91.3% | 14.5% | 5.2% | IPVLTRWPL (here or on the partner: biotinylated heavy chain) [P19 9-mer peptide (TMEM222-LOC644961 fusion)]
7.9% | 36.6% | 0.9% | 6.1% | 10.2% | 3.1% | YLRRQKRLK (here or on the partner: biotinylated heavy chain) [P60 9-mer peptide (FOXA1.p.F266L)]
4.6% | 39% | 0.1% | 7% | 2.7% | 2.5% | LMAQRLLLR (here or on the partner: biotinylated heavy chain) [P97 9-mer peptide (FOXRED2-TXN2 fusion)]
14.4% | 10.3% | -0.4% | 64.8% | 14.5% | 2.4% | CPMSRLRLA (here or on the partner: biotinylated heavy chain) [P46 9-mer peptide (TP53 (R213D) frameshift)]
– | 3.8% | 0.1% | 38.7% | – | 4.9% | RAVRRMNTF (here or on the partner: biotinylated heavy chain) [P17 9-mer peptide (MSMB-NOCA4 fusion)]
99.3% | 4.4% | 0.1% | 12.8% | – | 4.3% | YQFTFDLLI (here or on the partner: biotinylated heavy chain) [P48 9-mer peptide (AR.p.H875Y)]
6.3% | 58.1% | -0.1% | 12.9% | 1.4% | 1.5% | RVGNCKHLK (here or on the partner: biotinylated heavy chain) [P82 9-mer peptide (AR-V7 splice variant)]
